Results from patent publication US20240034784A1 (published 2024).

Tests used:
[1] = biological target: hClaudin18.2 (human, UniProt P56856 1-261); assay: FACS
[2] = biological target: CLDN18.2 (human, UniProt P56856 1-261); assay: FACS

- EC50 [1]: 6.72 nM
- EC50 [2]: 19.1 nM
B1: IMAB362 (antibody, V domains shown)
VH: QVQLQQPGAELVRPGASVKLSCKASGYTFTSYWINWVKQRPGQGLEWIGNIYPSDSYTNYNQKFKDKATLTVDKSSSTAYMQLSSPTSEDSAVYYCTRSWRGNSFDYWGQGTTLTVSS
VL: DIVMTQSPSSLTVTAGEKVTMSCKSSQSLLNSGNQKNYLTWYQQKPGQPPKLLIYWASTRESGVPDRFTGSGSGTDFTLTISSVQAEDLAVYYCQNDYSYPFTFGSGTKLEIKR
